Assay: yeast display, Sf9 membrane polyspecificity reagent, FACS + sequencing; frameworks hold sequencing errors
How it was run: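 A nanobody's polyreactivity label depends on the gate it was sorted from. Yeast display cells were stained with 10% biotinylated, detergent-solubilized Sf9 membrane reagent for 1 hour at 4 °C, enriched on streptavidin microbeads and sorted by FACS. The low and high (top ~1%) gates were set on anti-HA fluorescence for expression and streptavidin fluorescence for reagent binding.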

| Sequence | polyreactivity (PSR sort gate) |
| --- | --- |
| QVQLVESGGGLVQAGGSLRLSCAASGRTFIGNAMGWYRQAPGKERELVATITSSAGTTYYADSVKGRFTISRDNAKNTVYLQMNSLKPEDTAVYYCAKRIWRSYPYRAYYSEFGYWGQGTQVTVSS | high polyreactivity |
| QVQLVESGGGLVQAGGSLRLSCAASGGIFPQYSMGWYTQAPGKERELVSAISRRGGRTYYADSVKGRFTISRDTAKNTVYLQMNSLKPEDTAVYYCAKRALTYTRYRVIYDYWGQGTQVTVSS | high polyreactivity |
| QVQLVESGGGLVQAGGSLRLSCAASGYTIESYTMGWYREAPGKEREFVAVISSSDTSTSYADSVKGRFTISRDNAKNTVYLQMNSLKPEDTAFYYCAAYSSPYYITYYWYNYDYWGQGTQVTVSS | low polyreactivity |
| QVQLVESGGGSVQAGGSLRLSCAASGFTIRTYAMGWYRQAPGKERELVAAITSSGSSTYYAYSVKGRFTISRDNAKNTVYLQMNSLKPEDTAVYYCAADAPRSYRFGYWGQGTQVTVSA | high polyreactivity |
| QVQLVESGGGLVQAGGSLRLICAASGFTFGGYAMGWYRPAPVKERELVAAINGNGGRTYSADSVKGRFTISRDKAKNTVYLQMISLKPEDTAVYYCYAAYRQHYRYYYWGQGTQVTVSS | high polyreactivity |
| QVQLVESGGGLVQAGGSLRLSCAASGFTFYEYAMGWYRQAPGKERELVAAINRRGGRTYYADSVKGRFTISRDNAKNTVYLQMNSLKPEDTAVYYCNTPVSDGGHYYSWGQGTQVTVSS | high polyreactivity |
| QVQLVESGGGLVQAGVSLRLSCAASGRTFYVNAMGWYRQAPGKERELVAAISYSDGITYYADSVKARFTISRDNAKNTVYLQMNSLKPEDTAVYYCAAEGYHYYSQRAGVDYWGQGTQVTVSS | high polyreactivity |
| QVQLQESAVLVQAGGSLRLSCPASGSISGRNVMGRYRQAQAKQREFVASITDGSSTNYADSVKGRFTISRDNAKNTVYLQMNSLNPKDTAVYYCAAYAQRAKSFGYWGRGTQVTVSS | low polyreactivity |
| QVQLVESGGGLVQAGGSLRLSCADSGRTFVGNAMGWSRQAPGKERELVAAITSRTGSTYYADSVKGRFTISRDNAKNTVYLQMTSLTPEDTAVYYCATPYYQNVYSRKAYTYWGQGTQVTVSS | high polyreactivity |
| KVQLVESGGGLVQAGGSLRLSCAASGRTFRTYAMGWYRQAPGKERELVAANSSGGSTNYADSVKGRFTISRDNAKNTVYLQMNSLKPEDTSVYYCATRPTSDFVKRRVYEWLDYWGQGTQVTVSS | low polyreactivity |
| QVQLVESGGGLVQAGGSLRLSCAASGFIFVPNTMGWYRQAPGKERELVAAITSVGSTNYADSVKGRFTISRDNAKNTVYLQMNSLKPEDTAVYYCPATLYYQYGGDYWGQGTQVTVSS | low polyreactivity |
| QGQLVESGGGVVQAGGSLRLSSAASRRIFYSYPLGWYRPAPGKERELVAAISSSGGITYYADSVKGRFTISRDNAKNTGSLELNSLKPEDTAVYYCAARRRYKSGYWGQGTQVTVSS | high polyreactivity |
| QVQHVESCGGLVQAGGSLRLSCDASGSTFYYYAMGWSRQGPGKERELVAAISLGGGSTYYADSVKGRFTISRDNAKNTVYLHMNSLKPEDSAVYYCAARRVGGGFYTWRNPAYEYWGQGTQVTVSS | high polyreactivity |
| QVQLVESGGGLVQAGGSLRLSCAASGRTFRPYAMGWYRQAPGKERELVAAIDSSGTSTYYADSVKGRFTISRDNAKNTVYLQMNSLKPEDTAVYYCNTSLKRRRLRFNYWGQGTQVTVSS | low polyreactivity |
| QVQLVESGGGLVQAGGSLRLSCAASGRIFINNAMGWYRQAPGKEREFVAAITSGGRTYYADSVKGRFTISRDNAKNTVYLQMNSLKPEDTAVYYCAARYYRQYTRHYGYGYWGQGTQVTVSS | high polyreactivity |
| QLQLVESGGGLVQAGGSLRLSCAASGRIFRRYTMRSYRQAPGKERELVAAITWKGGRTSYADSVKGRFTISRDNANNTVYLQMNSLKPQDTAVYYCAAECPSRYHTFEFWGQGTQVTVSS | high polyreactivity |

| Sequence | polyreactivity (PSR sort gate) |
| --- | --- |
| QVQLVGSGGGLVQAGGSLRLSCAASGRIFDKNAMGWYRQAPGKERELVAAISGGGRTYYADSVKGRFTISRDNAKNTVYLQMNSLKQEDTAVYYCNVPYYYTGGSYGYWGQGTQVTVSS | low polyreactivity |
| QDQLVESGGGLVQAGGRLRLSCAASGYIFAYNAMGRDRQAPGKERELVAAISYSGGRTYYAYSVKGRFTISRYIAKNTVYLQMKSLKPEVTAVYYCAAPFRVGAGPATYDYWGQGTQVTVSS | high polyreactivity |
| QVQLVESGGGLVQAGGSLRLSCAASGSTFWEYAMGWYRQGPGTERELVAAISSSGGSTYYADSVKGRFTISRDNAKNTVYLQMNSLKPEDTAVYYCAARYSWRRAGYYYWGQGTQVTVSS | high polyreactivity |
| QVQLVESGGGVVQAGGSLRLSCAASGFIFHQNAMGWYRPAPGKERELVAAITRSGTSTYYADSVKGRFTISRDYAKNTVYLQMYSLKPEDTAVYYCANDPVRVGRFGYEYWGQGTQVTVSS | low polyreactivity |
| QVQLVESGGGLVQAGGSLRLSCAASGIIFTDNAMGWSRQAPGKERELVAAISCRGGSTYYADSVKGRFTISRDNAKNTVYLQMNSLKPEDTAVYYCARYGTDHRLGYGYWGQGTQVTVSS | low polyreactivity |
| QVQLVESGGGLVQAGGSLRLSCAASGSILESNVMGWYRQAPGKERELVASISSSGDSTYADSVKGRFTISRDNAKNTVYLQMNRLKPEDTAVYYCASDRLYWTYALYYWGQGTQVNVSS | low polyreactivity |
| QVQLVESGGGLVQAGVSLRLSCAASGNTFRINTKLCYRQAPGKERDLVATITRRGGSTYYADSVKGRFTISRDNAMNTVYLQMNSLNPEDSAVYYCAARVRGTGVYGGYNYWGQGTQVTVSS | high polyreactivity |
| QVQLVESGGGLVQAGGSLRLSCAASGRIFYANTMGWYRQAPGKERELVAAITGDGSTYADSVKGRFTISRDNAKNTVYLQMNSLKPEDTAVFYCAAEVDYSAFDYWGQGTQVTVSS | low polyreactivity |
| QVQLVESGGGLVQAGGSLRLSCAGSGSTFRSNAMGWYRQAPGKERELVAAISQRGGSTYYADSVKGRFTISRDNAKNTVYLQMNSLKPEDTAVYYCAARLYRGWRPFYYWGQGTQVSVSS | high polyreactivity |
| QVQLVESGGGLVQAGGSLRLSCAASGSIFGINAMGWYRPAPGKERQLVAAISGSTSRSYYADSVKGRFTISRDNAKNTVYLQMNSLKPEDTAVYYCAVVGLRSVTRRSYYWGQGTQVTVSS | high polyreactivity |
| QVQLVESGGGLVQPGGSLRLRCAASGSTLAYYTMGWSRHAPGKEMELVAAISGSGGSTYYADSVKGRFTIARDNAKNTVYLQMNSLKPEDSAVYYSIAVLYYYTSSEYDYWGQGTQVTVSS | high polyreactivity |
| QVQLVESGGGLVQAGGSLRLSCAASGSTFGGYTMGWYRQAPGKERELVAAITSRGGTTYYADSVKGRFTISRDNAKNTVYLQMNSLKPEDTAVYYCNRVSRYFYGFYWGQGTQVTVSS | high polyreactivity |
| QVQLVESGGGLVQAGGSLRLSCAASGSIFFRYAMGWYRQAPGKERELVAAISSSGGSTYYADSVKGRFTISRDNAKNTVYLQMNSLKPEDTAVYYCAARYYRKYYYSPFDYWGQGTQVTVSS | high polyreactivity |
| QVQLVESGGGLVQAGGSLRLSCAASGFIFRHNAMGWYRQAPGKEREFVAAISISGGSTYYADSVKGRFTISRDNAKNTVDLQMNSLKPEDTAVYYCNARSLGNTYLLYDYWGQGTQVTVSS | low polyreactivity |
| QVQLVESGGRLVQAGGSLRLSCAASGYTFQRYAMGWYRQAPGKERELVAAISSSGGSTYYADSVKGRFTISRDNAKNTVYLQMNSLKPEDTAVFYCAVRFVSAWSRYDYWGQGTQVTVSS | high polyreactivity |
| QVQLVESGGCLVQAGGSLSLSCAHSGGNFTFYAMVWYTQAPGKERELVATINWSGGSTYYADSVKGRFTISRDNAKITVYLQMNSLKPADTAVYYCNAAWPYKSVEYWGHGTQVTVSS | low polyreactivity |

— the nanobody polyreactivity screen of Harvey et al. (2022)
